Measured values taken from patent US12630850B2, “Enzymatic break down of chlorogenic acid in sunflower-containing products” (Chapman University, priority 2022, dated 2026).

Experiment: HPLC quantification of CGA in sunflower butter cookies
Assay type: biochemical
Details: SFB cookies; both levels, 1.72×10^−1 and 1.72×10^−2 mg/g butter
From the text: Cookie formulations and baking conditions. The cookie dough formulation consisted of baking soda (2.2 g), salt (2.2 g), whole egg (46.8 g), maple syrup (76.3 g), vanilla extract (2.2 g), flour (145.8 g), and butter (87.5 g). CGA esterase treatments in SFF, utilized almond butter instead of SFB. The wet (sunflower or almond butter, maple syrup, eggs, and vanilla extract) and dry (flour, baking soda, and salt) ingredients were mixed separately and subsequently combined and mixed for 75 s with an electric hand mixer. The dough was rolled out and cut to the following dimensions: 6 mm thickness and 40 mm diameter. Cookies were baked for 7 min in a convection oven preheated to 149° C. (300° F.) and allowed to cool at room temperature for 10 min before further analysis.
Preparation of sunflower butter cookies with chlorogenic acid/CGA esterase. […]
High-performance liquid chromatography (HPLC) quantification of phenolic content in sunflower cookies. […] The extract was filtered through 0.20 μm syringe filters and analyzed with an Agilent 1260 Infinity II system (Agilent Technologies) equipped with a quaternary pump (G7111B), vial sampler (G7129A), and diode array detector (HS G7117C). […] CGA and caffeic acid concentrations were detected at 320 nm and quantified using a standard curve between 0.00-0.10 mg ml^−1 CGA (y=172287x, R^2=0.994) and caffeic acid (y=248557x, R^2=0.967).

B1: CGA esterase: CGA esterase from L. helveticus (Genbank ID: WP_025283955.1, Uniprot ID: U6F2K7), expressed in Escherichia coli; the dimer is the active form (protein, listed as Lactobacillus helveticus)
chain: MSRITIERDGLTLVGDREEPFGEIYDMAIIMHGFAANRNTDLLRQIADDLRDENVASVRFDFNGHGESDGKFEDMTVCNEIADGKAILDYVRTDPHVRDIFLVGHSQGGVVASMLAGLYPDVVKKVVLLAPAAQLKDDALRSNTQGATYDPNHIPDWPLVGNKLGMKLGGFYLRTAQVLPIYEVSQCFTRPVSVIAGTNDQWDPKYAKKYDEVYENSELHMIPNADHRFSGGYKDMAADLTAQFLKPAF
Q: For B1, which “Decrease of CGA concentration” value is on record?
A: Its value is 90-95%.
